System: Bacillus subtilis DB104 (SP-AmyQ fusion secretion)
Assay: AmyQ secretion efficiency, weighted average sort bin (1 = best secretion, 10 = worst) (bin number (weighted average, 1-10)); higher = lower secretion efficiency
How it was run: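 Secretion score gives the read-frequency-weighted average bin number, normalised to beads per bin, with low-abundance sequences left out. A B. subtilis DB104 library expressing mature AmyQ fused to designed signal peptides, integrated at amyE, was encapsulated with fluorescein-starch at about 0.3 cells per ~65 nL alginate bead. Beads were grown about 13 h at room temperature, stained with nile red, and the occupied ones were sorted by large-particle flow cytometry into 10 equally populated bins by green/red fluorescence ratio before the amplicons from each bin were Illumina-sequenced.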

Sequence	AmyQ secretion efficiency
MKLKSKLLLSCLALSTVFVATTIGNAPTH	7.24
MLKKIALTLCPAIVGSLLFFTRKKASAHVS	7.46
MLSMNLWISLLFALTLIFTMAFSNMSAQAAGK	1.93
MLKKKWMVGLLAGCLAAGGFSYNVFATEN	5.37
MKIRKILLSSALSFGMLISAVPVLAAGT	3.66
MAIIIAIIAAVIVIAALITFNVRNDSPG	6.52
MKVPKTMLLSTAAGLLLSLTATSVSAKRK	5.92
MTKKAWFLPLVCVLLISGWLAPAASASPQTT	2.48
MKRKKLCLWFTVFSLFLVLLPGKALGAVD	4.65
MKKWLIIAVSLAIAIVLFMSVSFFAKAAGM	5.66
MKKRRRRIAMLILAGIALFVFISPLKSHKT	6.26
MLKKKWMVGLLAGCLAAGEDDEEDAFATEN	5.44
MLCVMMLLFSAIASFPVSYQAKDQ	6.1
MPYLKRVLLLLVTGLFMSLFEEEATASAQTG	1.12
MKSKGSIMACLILFSFTITTFINTETPSAFSN	5.71
MKVPKTMLLSTAAGLLLSLTATSPPFPPVSAHYV	4.04
MKMKSGMEQAVSVLLLLSRLPASLTSE	3.77
MKRLCLWFTVFSLFLVLLPGKALGAVD	3.84
MKKVLMAFIICLSLILSVLAAPPSGHKAESV	7.55
MKLSVKIAGVLTVAAAAMTAKMYATWKGN	7.14
MKRIRIPMTLALGAALTIAPLSFPSAEEN	6.68
MKKRITYSLLALLAVVAFAFTDSSKAKKAEA	4.79
MFNRLFRVCFLAALIMAFTLPNSGYAQKP	2.99
MKKRKRRVSALTPSTTLAITAKAKEL	6.69
MPIKKKVMMCLAVTLVFGSMSFPTLTNATSGGFKE	2.8
MRIFKKAVFVIMISFLIATVNVNTAHAKKR	2.09

Sequence	AmyQ secretion efficiency
MKRMIVRMTLPLLIVCLAFSSFSASARVASE	4.86
MNKFLKSNFRFRRKRKKGISLLASSNFIKASND	8.33
MKRFILVLSFLSIIVAYPIQINASPM	2.47
MLTKRLLTIYIMLLGLIAWFPGAAQAEDE	3.66
MRKKTKNRLISSVLSTVVISSPGAAGASSK	3.33
MKRFSTAYLLLGILCSAAVFLIGAPSRALGKKK	7.04
MKSCKQYKRCQYSSILLLIPSVSFAADS	7.62
MKKRKRRNFKRFIAAFLVLALMISGVPADVLAKST	2.12
MKKAAAVLLSLGLVFGFSYGAGHVAEKKTK	6.23
MKRIRIPMTLALGAALTIAPLSFASAADE	2.12
MKKRKRRNFKRFIAAFLVLALMILSLVPADVLAKST	2.47
MTGWLIIAVSLAIAIVLFMYTKGEAKAAGM	7.08
MGLGKKLSVAVAASFMSLSISLPGLQAAEG	1.65
MKRFLIGAGVAAVILRKKKKAKHQTHSQEM	6.98
MKKKQVMLALTAAAGLGLTALHSAPAFKAAPL	6.7
MKKIGLLFMLCLAALFTIGFPAQQLDAAEA	2.04
MRNLTKTSLLLAGLCQMVFVTHASAEES	3.18
MLKKKWMVGLLAGCLAAGVALALSGFSYNAFATEN	5.02
MKKTIMSFVAVAALSTTAFGAHFSAKEI	4.73
MKKVSALTPSTTLAITAKAKEL	6.89
MKKIMSAFVGMVLLTIFCFSPQASAADD	3.32
MKKQRKIITATTAVVLGSTLFAGAASAQSI	1.81
MKKRLIAPMLLSAASLAFFAMSGSAQSAAY	5.28
MLKKKWMVGLLAGCLAAGGFSYNAFVTEN	7.21
MNKLKRLSMLTVMIASVFIFSASFFTSHALAAQY	2.06
MLKKIMNLNMMMALTLCPAIVGSLLFFTAPASAHVS	2.77

Sequence	AmyQ secretion efficiency
MIAYFGKCLLLVTIMFLGVLFGMWQANHG	7.19
MLKNRILALFVLSLGLLSFMVTPVSAASK	1.67
MKKKLAAGLTASAIVGTTLVVTPVEAATI	2.24
MKRIRIPMTLALGAALTIAPLKRKASAEEN	7.5
MKKLSLGVASAALGLALVGGGTWAAFN	6
MKKSQYFIVFICFFVLFSVHPIAVAAADS	3.83
MRKKRVITCVMAASLTLGSLLPAGYASFKED	3.82
MLTKRLLTIYIMLLGLIAWFPGATVPAQAEEK	2.86
MGLGKKLSVAVAASFMSLSISLPGRQAAEG	3.87
MAIIIAIIAAVIVIAALITFNVRNADDD	7.51
MRPVFPLILSAVLFLSCFFGAREASASKR	1.24
MTKKRWKTPYVCVLLISGWLAPAASASAQTT	1.44
MKRMIVRMTLPLLIVCLAFSKDSASARAASE	1.93
MKNMSCKLVVSVTLFFSFLTIGPLAHVQNS	4.29
MKLSVKIAGVLTVAAAAMTAKMYATAEEE	6.08
MKKKQVMLALTAAAGLGLTALHSAPAHKAAPL	6.85
MFKFKKNFRKKRSAALMSISLFSATASAAST	4.73
MKSCKQLIVCSLAAILLLIPSVSFSADS	4.65
MKLAKRVSALTPSTTLAITKKAKEL	6.57
MKKKLAAGLTASAIVGTTLVVTPAEADDD	5.01
MNKKYFVLIVCIIFTSALFPTFSSATAAQG	1.33
MKKWMITIAMLILAGIALFVFIDPLKSHKT	6.61
MKKAFLVFLSVVLVTTVFLVKQQESVHQAKQL	6.34
MKKWMASTSFSMGLFLAAAVLLCLMVPQQIQGASS	5.01
MKKKQVMLALTAAAGLGLTALHKRPAAKAAPL	6.71
MKVLLSALLLLLFAFEPSLSGKKL	6.45

Sequence	AmyQ secretion efficiency
MKKIGLLFMLCLAALFTIGFPAQQADAAED	2.02
MKKLLAAGIIGLLTVSIASPIFAAEK	1.99
MKLKSKLLLSCLALSTVFVATTIKNAPTH	6.58
MKIRKILLSSALSFGMLISAVPALAAGR	2.62
MKKLLAAGIIGLLTVRKKSPSFAAEK	8.11
MLKKIALTLCPAIVGSLLFFTAIASAHVS	3.46
MKKGIIRFLLVSFVLFFALSTGITGVQRAPA	4.88
MKKWIYVVLVLSIAGIGGFSVHCASS	6.47
MKKRLIGFLVLVPALIMSGITLIESNKK	5.98
MGLGKKLSVAVAASFMSLSISLPGVQSAEG	3.87
MKVLLSALLLLLFAFEPSASGASL	2.94
MNFKKTVVSALSISALALSVSGVASARRK	6.94
MYKGWLIQFAVMLSVLSTFTYSASAVGV	5.73
MRGKSAVLLSLIMLIAGFLISFTFQM	6.75
MKKGIIRFLLVSFVLFFALSTGITGVQVAPA	6.17
MTKRGIQAFAGGIILATAVLAAVFKKTKKDQAAAV	7.92
MRMLWRSLALCGLALTLADDDCAQAAEP	2.72
MKKKIVAGLAVSAVVGAEAKTI	8.76
MKRWMRKTLVVLFTIVTFGLVSPPAALMADKP	2.03
MRMLWRSLALCGLALTLAPCFVVTPASAQAAEP	2.23
MTTTAWFLPLVCVLLISGWLAPAASASAQTT	2.09
MGLGGKLSVAVAASFMSLSISLPGVQAAEG	1.01
MKRIRIPMTLALGAALTIAPLVFASAEEN	4.55
MKKKSQQQGGVSAVVGSSMAAAPAEAKTI	7.9
MKSKWMSGLLLVAVGFSFTQVMVHPGET	7.16
MKKQIITATTAVVLGSTLFAKKASAQSI	6.18

Sequence	AmyQ secretion efficiency
MKSCKQLIVCSLAAILLLIPSVAFAADS	2.83
MKWMCSICCAAVLLAGGAAQIEAV	2.05
MLKKKWMVGLLAGCLAAGGFSYNAFKTEN	5.95
MKRIRIPMTLALGAALTIAPLSFASFEEN	6.34
MFLRKILLSSALSLGMLVSAAPVLATSS	2.2
MKSKWMSGLLLVAVGFSFTQVMGHAGET	5.88
MKKWMITIAMLILAGIALFVFISPTSSSTTFLKSHKT	7.57
MKSCKQLIVCSLAAILLLKRKKKRSFAADS	7.68
MKKCLLFLTTIALILISLSTNAFAKNT	2.13
MRKRQGSGYGGLMMFGTITAASASPD	7.27
MKKVLMAFIICLSLILSVLAAPPSGNKAESV	4.42
MKWMCSICCAAVLLAGRRRRRKAQAEAV	6.72
MNKKYFKRRKCKRFTSALFPTFSSVTAAQG	6.71
MRKNRILALFVLSLGLLSFMVTPVSAKRK	2.57
MPRKKKQKYRCLAVTLVFGSMSFPTLTNSGGFKE	6.94
MKRIRIPMTLALGAALTIAPLSFASAATD	2.9
MKKSQYFIVFICFFVLFSVHPIAAAFADS	5.18
MKQRRIMIFLTSFMLLAMTGQTALAKDV	3.05
MKRLLVSLRVWMVFLMNWVTPDRKTDAAAVY	6.85
MSVMTTMLLSTAAGLLLSLTATSVSAHYV	4.5
MMKKLFHSTLIVLLFFSFFGVIPIHAKKQ	1.92
MGLGKKLSVAVAASFMSLSISLPGVQDAEG	3.93
MAIIIAIIAAVIVIAALITFNVRNNSPG	6.02

Reference: the supplement of paper PMC9942255
